Laboratory results reported in patent publication US20110124571A1 (INSTITUT PASTEUR, published 2011).

Biological target: Recombinant human NEP (neutral endopeptidase, EC 3.4.24.11), devoid of its N-terminal cytosol and … (human, UniProt P08473 52-750)
Test: cell-based or functional assay

Sequence of Recombinant human NEP (neutral endopeptidase, EC 3.4.24.11), devoid of its N-terminal cytosol and … (P08473 52-750): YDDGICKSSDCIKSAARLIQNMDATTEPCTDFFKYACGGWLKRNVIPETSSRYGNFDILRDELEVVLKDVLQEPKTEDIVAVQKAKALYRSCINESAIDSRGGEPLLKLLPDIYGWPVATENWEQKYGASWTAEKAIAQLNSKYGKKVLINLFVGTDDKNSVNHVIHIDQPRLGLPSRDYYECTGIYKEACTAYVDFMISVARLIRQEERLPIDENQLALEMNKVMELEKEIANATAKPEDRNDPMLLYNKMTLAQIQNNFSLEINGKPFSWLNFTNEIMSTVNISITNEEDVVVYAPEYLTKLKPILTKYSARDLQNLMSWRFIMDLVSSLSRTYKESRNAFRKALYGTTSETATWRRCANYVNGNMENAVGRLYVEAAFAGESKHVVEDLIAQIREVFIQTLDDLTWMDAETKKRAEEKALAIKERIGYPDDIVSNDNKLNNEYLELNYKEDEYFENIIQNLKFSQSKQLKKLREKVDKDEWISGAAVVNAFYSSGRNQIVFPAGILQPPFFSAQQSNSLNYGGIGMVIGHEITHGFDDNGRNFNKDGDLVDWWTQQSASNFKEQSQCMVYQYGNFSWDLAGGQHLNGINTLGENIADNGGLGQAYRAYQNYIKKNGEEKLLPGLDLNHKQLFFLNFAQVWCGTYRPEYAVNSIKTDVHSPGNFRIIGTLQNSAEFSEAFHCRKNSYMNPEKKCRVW

CQRFSR (spacer -HN-(CH2)6-CO- (amino-hexanoic-acid) between Cys and Gln) [NH2-C-(C6-polyethylene)QRFSR-COOH]
IC50, inhibition of Abz-dR-G-L-EDDnp cleavage by rhNEP (endopeptidase activity): 40 µM
